From US11325966

Legend:
Experiment in all cases: cell-based or functional assay
92BR020 (HIV-1) = target: 92BR020 (HIV-1)
92BR020 D325A (HIV-1) = target: 92BR020 D325A (HIV-1)
92BR020 H33OA (HIV-1) = target: 92BR020 H33OA (HIV-1)
92BR020 I326A (HIV-1) = target: 92BR020 I326A (HIV-1)
92BR020 N136A (HIV-1) = target: 92BR020 N136A (HIV-1)
[1] = target: 92BR020 N136A + N156A + N301A (HIV-1)
[2] = target: 92BR020 N136A + N332A (HIV-1)
92BR020 N156A (HIV-1) = target: 92BR020 N156A (HIV-1)
[3] = target: 92BR020 N156A + N332A (HIV-1)
92BR020 N301A (HIV-1) = target: 92BR020 N301A (HIV-1)
[4] = target: 92BR020 N301A + N332A (HIV-1)
92BR020 N332A (HIV-1) = target: 92BR020 N332A (HIV-1)
92BR020 N386A (HIV-1) = target: 92BR020 N386A (HIV-1)
92BR020 N392A (HIV-1) = target: 92BR020 N392A (HIV-1)
92BR020 Q328A (HIV-1) = target: 92BR020 Q328A (HIV-1)
92BR020 R327A (HIV-1) = target: 92BR020 R327A (HIV-1)
BG505 (T332N) (HIV-1) = target: BG505 (T332N) (HIV-1)
[5] = target: BG505 (T332N) N137A (HIV-1)
[6] = target: BG505 (T332N) N156A (HIV-1)
[7] = target: BG505 (T332N) N295A (HIV-1)
[8] = target: BG505 (T332N) N301A (HIV-1)
[9] = target: BG505 (T332N) N386A (HIV-1)
[10] = target: BG505 (T332N) N392A (HIV-1)
JR-CSF (HIV-1) = JR-CSF (HIV-1) (UniProt P20871)
JR-CSF D325A (HIV-1) = JR-CSF D325A (HIV-1) (UniProt P20871)
JR-CSF G324A (HIV-1) = JR-CSF G324A (HIV-1) (UniProt P20871)
JR-CSF H33OA (HIV-1) = JR-CSF H33OA (HIV-1) (UniProt P20871)
JR-CSF I326A (HIV-1) = JR-CSF I326A (HIV-1) (UniProt P20871)
JR-CSF N295A (HIV-1) = JR-CSF N295A (HIV-1) (UniProt P20871)
JR-CSF N301A (HIV-1) = JR-CSF N301A (HIV-1) (UniProt P20871)
JR-CSF N332A (HIV-1) = JR-CSF N332A (HIV-1) (UniProt P20871)
JR-CSF N339A (HIV-1) = JR-CSF N339A (HIV-1) (UniProt P20871)
JR-CSF N362A (HIV-1) = JR-CSF N362A (HIV-1) (UniProt P20871)
JR-CSF N386A (HIV-1) = JR-CSF N386A (HIV-1) (UniProt P20871)
JR-CSF N392A (HIV-1) = JR-CSF N392A (HIV-1) (UniProt P20871)
JR-CSF Q328A (HIV-1) = JR-CSF Q328A (HIV-1) (UniProt P20871)
JR-CSF R327A (HIV-1) = JR-CSF R327A (HIV-1) (UniProt P20871)
[11] = target: 118-virus panel (Env of HIV-1 pseudoviruses)

control mAb 12A12 (antibody) was tested, and the IC50 in TZM-bl assay (92BR020 (HIV-1)) was 0.05 µg/mL, the IC50 in TZM-bl assay (92BR020 D325A (HIV-1)) was 0.05 µg/mL and the IC50 in TZM-bl assay (92BR020 H33OA (HIV-1)) was 0.073 µg/mL. It also gave an IC50 in TZM-bl assay (92BR020 I326A (HIV-1)) of 0.011 µg/mL, an IC50 in TZM-bl assay (92BR020 N136A (HIV-1)) of 0.027 µg/mL and an IC50 in TZM-bl assay [1] of 0.013 µg/mL. It also gave an IC50 in TZM-bl assay [2] of 0.025 µg/mL, an IC50 in TZM-bl assay (92BR020 N156A (HIV-1)) of 0.035 µg/mL and an IC50 in TZM-bl assay [3] of 0.023 µg/mL. The IC50 in TZM-bl assay (92BR020 N301A (HIV-1)) was 0.011 µg/mL, the IC50 in TZM-bl assay [4] was 0.007 µg/mL and the IC50 in TZM-bl assay (92BR020 N332A (HIV-1)) was 0.039 µg/mL. For the same molecule, the IC50 in TZM-bl assay (92BR020 N386A (HIV-1)) was 0.055 µg/mL, the IC50 in TZM-bl assay (92BR020 N392A (HIV-1)) was 0.105 µg/mL and the IC50 in TZM-bl assay (92BR020 Q328A (HIV-1)) was 0.028 µg/mL. The IC50 in TZM-bl assay (92BR020 R327A (HIV-1)) was 0.022 µg/mL, the IC50 in TZM-bl assay (BG505 (T332N) (HIV-1)) was 0.03 µg/mL and the IC50 in TZM-bl assay [5] was 0.027 µg/mL. The IC50 in TZM-bl assay [6] was 0.024 µg/mL, the IC50 in TZM-bl assay [7] was 0.044 µg/mL and the IC50 in TZM-bl assay [8] was 0.027 µg/mL. It also gave an IC50 in TZM-bl assay [9] of 0.03 µg/mL, an IC50 in TZM-bl assay [10] of 0.012 µg/mL and an IC50 in TZM-bl assay (JR-CSF (HIV-1)) of 0.233 µg/mL. The IC50 in TZM-bl assay (JR-CSF D325A (HIV-1)) was 0.203 µg/mL, the IC50 in TZM-bl assay (JR-CSF G324A (HIV-1)) was 0.236 µg/mL and the IC50 in TZM-bl assay (JR-CSF H33OA (HIV-1)) was 0.288 µg/mL. The IC50 in TZM-bl assay (JR-CSF I326A (HIV-1)) was 0.278 µg/mL, the IC50 in TZM-bl assay (JR-CSF N295A (HIV-1)) was 0.203 µg/mL and the IC50 in TZM-bl assay (JR-CSF N301A (HIV-1)) was 0.01 µg/mL. For the same molecule, the IC50 in TZM-bl assay (JR-CSF N332A (HIV-1)) was 0.24 µg/mL, the IC50 in TZM-bl assay (JR-CSF N339A (HIV-1)) was 0.028 µg/mL and the IC50 in TZM-bl assay (JR-CSF N362A (HIV-1)) was 0.267 µg/mL. It also gave an IC50 in TZM-bl assay (JR-CSF N386A (HIV-1)) of 0.332 µg/mL, an IC50 in TZM-bl assay (JR-CSF N392A (HIV-1)) of 0.23 µg/mL and an IC50 in TZM-bl assay (JR-CSF Q328A (HIV-1)) of 0.038 µg/mL. For the same molecule, the IC50 in TZM-bl assay (JR-CSF R327A (HIV-1)) was 0.131 µg/mL.

With 354BG18 (antibody) the IC50 in TZM-bl assay [2] was > 50 µg/mL, the IC50 in TZM-bl assay [3] was > 50 µg/mL and the IC50 in TZM-bl assay [4] was > 50 µg/mL. The IC50 in TZM-bl assay (92BR020 N332A (HIV-1)) was > 50 µg/mL, the IC50 in TZM-bl assay (92BR020 N386A (HIV-1)) was 0.003 µg/mL and the IC50 in TZM-bl assay (JR-CSF N332A (HIV-1)) was > 50 µg/mL. For the same molecule, the IC50 in TZM-bl assay (JR-CSF N392A (HIV-1)) was 0.002 µg/mL.

B1: BG1 IgG (antibody, V domains shown)
VH: AEQLVESGGGLVPPGRSLRLSCSASGFYFPDYAMAWVRQAPGQGLQWVGFMRGWAYGGSAQFAAFAVGKFAISRDDGRNVVYLDVKNPTFEDTGVYFCAREQRNKDYRYGQEGFGYSYGMDVWGRGTTVVVST
VL: DIHMTQSPVSLSASVGDRVTITCRASHFIANYVNWYQQKPGKAPTLLIFESSTLQRGVPSRFSAYGDGTEFTLSINTLQPEDFASYICQQSHSPPVTFGAGTRVDQK
In the case of B1, the geometric mean IC50 in TZM-bl assay [11] is reported as 0.67 µg/mL.
